Laboratory results as given in US20250179205A1 (Hoffmann-La Roche, published 2025).

Experiments:
[1] = biological target: T1, His-tagged human dimeric FAP (recombinant FAP_ECD) (human, UniProt Q12884 27-760); assay: SPR (Biacore T200), His-tagged dimeric huFAP ECD captured by anti-His, antibody as analyte, 1:1 fit (avidity)
T1 construct: also called hu FAP ectodomain + poly-lys-tag + his6-tag
Experimental: The capacity of the bispecific constructs to bind human FAP was assessed by surface plasmon resonance (SPR). All SPR experiments were performed on a BIACORE® T200 (BIACORE®) at 25° C. with HBS-EP as running buffer (0.01 M HEPES pH 7.4, 0.15 M NaCl, 3 mM EDTA, 0.005% Surfactant P20, (BIACORE®).
His-tagged human dimeric FAP (recombinant FAP_ECD) was captured on a CM5 chip (GE Healthcare) immobilized with anti-His antibody (Qiagen Cat. No. 34660) by injection of 500 nM huFAP for 60 s at a flow rate of 10 uL/min, 10 nM murine FAP for 20 s at a flow rate of 20 uL/min and 10 nM cynoFAP for 20 s at a flow rate of 20 uL/min. Immobilization levels for the anti-His antibody of up to 18000 resonance units (RU) were used. Following the capture step, the bispecific antibodies as well as control molecules were immediately passed over the chip surface at a concentration ranging from 0.78-100 nM with a flow rate of […] for 280 s and a dissociation phase of 180 s. Bulk refractive index differences were corrected for by subtracting the response obtained in a reference flow cell, where no FAP was immobilized. Avidity was determined using the Langmuir 1:1 curve fitting. For bivalent binding the same 1:1 fitting was used leading to an apparent KD value.

[2] = biological target: T2, human fibroblast activation protein (huFAP) (human, UniProt Q12884 1-760); assay: flow cytometry, NIH/3T3-huFAP clone 19 cells, PE anti-human Fc F(ab')2
T2 construct: expressed on transfected NIH/3T3-huFAP clone 19 cells; also called human FAP
Experimental: (§1) NIH/3T3-huFAP clone 19 and NIH/3T3-mFAP clone 26 were generated by the transfection of the mouse embryonic fibroblast NIH/3T3 cell line (ATCC CRL-1658) with the expression vector pETR4921 to express under 1.5 μg/mL Puromycin selection huFAP or mFAP, respectively.
(§2) NIH/3T3-huFAP, NIH/3T3-mFAP or NIH/3T3-wt cells were cultured with 1× Dulbecco's Modified Eagle's Medium (DMEM) (Gibco, Cat. No. 42430-025) supplemented with 10% Fetal Bovine Serum (FBS) (life technologies, Cat. No. 16140, Lot No. 1797306A). For the NIH/3T3-huFAP and NIH/3T3-mFAP cells 1.5 μg/mL Puromycin (Gibco, Cat. No. A11138-03) was added to the medium for selection of FAP-expressing cells. NIH/3T3 cells were removed from the plate by using enzyme-free Cell Dissociation Buffer (Gibco, Cat. No. 13151014). 0.3×10⁵ NIH/3T3-huFAP clone 19, NIH/3T3-mFAP clone 26 or NIH/3T3-wt were added in 200 μl of 1×DMEM 10% FBS to each well of a round-bottom 96-well plate (Greiner Bio-One, CELLSTAR®, Cat. No. 650185). Plates were centrifuged 5 minutes at 1700 rpm and supernatants were flicked off. Cells were washed once with 200 μL of 4° C. cold FACS buffer (eBioscience, Cat. No. 00-4222-26). All samples were resuspended in 50 μL/well of 4° C. cold FACS buffer containing the bispecific antigen binding molecules (primary antibody) or isotype control antibody DP47 at the indicated range of concentrations (in duplicates) and incubated for 120 minutes at 4° C. Afterwards the cells were washed three times with 200 μL 4° C. cold FACS buffer. Cells were further stained with 25 μL/well of 4° C. cold secondary antibody solution (1:50 dilution of secondary antibody) containing R-Phycoerythrin (PE) conjugated AffiniPure F(ab′)₂ Fragment Goat Anti-Human IgG, Fcγ Fragment Specific (Jackson ImmunoResearch, Cat. No. 109-116-098) and incubated for 60 minutes at 4° C. in the dark. Cells were washed with 200 μl FACS buffer and resuspended in 85 μL/well FACS-buffer containing 0.2 μg/mL DAPI (Roche, Cat. No. 10236276001) and acquired the same day using 5-laser LSR-Fortessa (BD Bioscience with DIVA software). Data analysis was performed using the FlowJo version 10 software (FlowJo LLC).

[3] = biological target: T3, mouse fibroblast activation protein (mFAP) (mouse, UniProt P97321 1-761); assay: flow cytometry on NIH/3T3-mFAP cells (3T3_mFAP), PE-labelled anti-human IgG Fcgamma F(ab')2 secondary, MFI baseline corrected
T3 construct: expressed on transfected NIH/3T3-mFAP clone 26 cells; also called murine FAP; mouse FAP
T3 sequence (P97321 whole entry): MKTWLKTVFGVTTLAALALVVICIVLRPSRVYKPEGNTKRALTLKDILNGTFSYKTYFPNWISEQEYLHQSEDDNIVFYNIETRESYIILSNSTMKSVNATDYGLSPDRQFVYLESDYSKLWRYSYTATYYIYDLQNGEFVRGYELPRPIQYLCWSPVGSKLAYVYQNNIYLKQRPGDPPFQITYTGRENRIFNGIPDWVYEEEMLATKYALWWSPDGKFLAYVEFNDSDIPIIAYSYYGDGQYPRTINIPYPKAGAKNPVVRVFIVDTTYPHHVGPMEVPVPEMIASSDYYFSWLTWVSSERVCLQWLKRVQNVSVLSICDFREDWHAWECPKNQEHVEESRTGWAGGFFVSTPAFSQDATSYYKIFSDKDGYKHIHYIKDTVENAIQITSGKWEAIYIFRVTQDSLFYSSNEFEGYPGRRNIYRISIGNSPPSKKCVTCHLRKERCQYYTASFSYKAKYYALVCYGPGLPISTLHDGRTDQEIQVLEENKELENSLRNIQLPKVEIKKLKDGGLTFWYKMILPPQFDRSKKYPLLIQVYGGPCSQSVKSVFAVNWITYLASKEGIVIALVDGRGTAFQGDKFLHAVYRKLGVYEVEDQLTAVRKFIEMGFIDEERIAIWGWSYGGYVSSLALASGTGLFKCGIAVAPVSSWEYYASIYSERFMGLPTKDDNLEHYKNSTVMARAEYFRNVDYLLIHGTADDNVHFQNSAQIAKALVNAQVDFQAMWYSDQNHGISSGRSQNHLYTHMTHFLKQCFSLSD
Experimental: as §1, §2

| Kd [1] [nM] | koff [1] [s⁻¹] | kon [1] [M⁻¹ s⁻¹] | EC50 [2] [nM] | binding result [3] | Binder |
| --- | --- | --- | --- | --- | --- |
| 2.7 | 0.00155 | 576000 |  |  | P1AD4520 or P1AD9139 mu CD40 (FGK4.5) × FAP (28H1) (4 + 1) (bispecific antibody, mouse IgG1, kappa, murine surrogate, tetravalent for mouse CD40, monovalent for FAP (28H1); mouse IgG1 DAPG, DD/KK; also called 4 + 1 with C-terminal VH/VL fusion; muCD40-28H1) heavy 1: EVQLVESDGGLVQPGRSLKLPCAASGFTFSDYYMAWVRQAPTKGLEWVASISYDGSSTYYRDSVKGRFTISRDNAKSTLYLQMDSLRSEDTATYYCGRHSSYFDYWGQGVMVTVSSAKTTPPSVYPLAPGSAAQTNSMVTLGCLVKGYFPEPVTVTWNSGSLSSGVHTFPAVLQSDLYTLSSSVTVPSSTWPSQTVTCNVAHPASSTKVDKKIVPRDCGGGGSGGGGSEVQLVESDGGLVQPGRSLKLPCAASGFTFSDYYMAWVRQAPTKGLEWVASISYDGSSTYYRDSVKGRFTISRDNAKSTLYLQMDSLRSEDTATYYCGRHSSYFDYWGQGVMVTVSSAKTTPPSVYPLAPGSAAQTNSMVTLGCLVKGYFPEPVTVTWNSGSLSSGVHTFPAVLQSDLYTLSSSVTVPSSTWPSQTVTCNVAHPASSTKVDKKIVPRDCGCKPCICTVPEVSSVFIFPPKPKDVLTITLTPKVTCVVVAISKDDPEVQFSWFVDDVEVHTAQTKPREEQINSTFRSVSELPIMHQDWLNGKEFKCRVNSAAFGAPIEKTISKTKGRPKAPQVYTIPPPKKQMAKDKVSLTCMITNFFPEDITVEWQWNGQPAENYKNTQPIMKTDGSYFVYSKLNVQKSNWEAGNTFTCSVLHEGLHNHHTEKSLSHSPGGGGGSGGGGSGGGGSGGGGSEVQLLESGGGLVQPGGSLRLSCAASGFTFSSHAMSWVRQAPGKGLEWVSAIWASGEQYYADSVKGRFTISRDNSKNTLYLQMNSLRAEDTAVYYCAKGWLGNFDYWGQGTLVTVSS heavy 2: EVQLVESDGGLVQPGRSLKLPCAASGFTFSDYYMAWVRQAPTKGLEWVASISYDGSSTYYRDSVKGRFTISRDNAKSTLYLQMDSLRSEDTATYYCGRHSSYFDYWGQGVMVTVSSAKTTPPSVYPLAPGSAAQTNSMVTLGCLVKGYFPEPVTVTWNSGSLSSGVHTFPAVLQSDLYTLSSSVTVPSSTWPSQTVTCNVAHPASSTKVDKKIVPRDCGGGGSGGGGSEVQLVESDGGLVQPGRSLKLPCAASGFTFSDYYMAWVRQAPTKGLEWVASISYDGSSTYYRDSVKGRFTISRDNAKSTLYLQMDSLRSEDTATYYCGRHSSYFDYWGQGVMVTVSSAKTTPPSVYPLAPGSAAQTNSMVTLGCLVKGYFPEPVTVTWNSGSLSSGVHTFPAVLQSDLYTLSSSVTVPSSTWPSQTVTCNVAHPASSTKVDKKIVPRDCGCKPCICTVPEVSSVFIFPPKPKDVLTITLTPKVTCVVVAISKDDPEVQFSWFVDDVEVHTAQTKPREEQINSTFRSVSELPIMHQDWLNGKEFKCRVNSAAFGAPIEKTISKTKGRPKAPQVYTIPPPKEQMAKDKVSLTCMITNFFPEDITVEWQWNGQPAENYDNTQPIMDTDGSYFVYSDLNVQKSNWEAGNTFTCSVLHEGLHNHHTEKSLSHSPGGGGGSGGGGSGGGGSGGGGSEIVLTQSPGTLSLSPGERATLSCRASQSVSRSYLAWYQQKPGQAPRLLIIGASTRATGIPDRFSGSGSGTDFTLTISRLEPEDFAVYYCQQGQVIPPTFGQGTKVEIK light: DTVLTQSPALAVSPGERVTISCRASDSVSTLMHWYQQKPGQQPKLLIYLASHLESGVPARFSGSGSGTDFTLTIDPVEADDTATYYCQQSWNDPWTFGGGTKLELKRADAAPTVSIFPPSSEQLTSGGASVVCFLNNFYPKDINVKWKIDGSERQNGVLNSWTDQDSKDSTYSMSSTLTLTKDEYERHNSYTCEATHKTSTSPIVKSFNRNEC |
| 0.08 | 0.000172 | 2.19e+06 |  |  | 4B9 IgG1 (antibody, V domains shown, IgG1; also called Control; FAP(4B9)) VH: EVQLLESGGGLVQPGGSLRLSCAASGFTFSSYAMSWVRQAPGKGLEWVSAIIGSGASTYYADSVKGRFTISRDNSKNTLYLQMNSLRAEDTAVYYCAKGWFGGFNYWGQGTLVTVSS VL: EIVLTQSPGTLSLSPGERATLSCRASQSVTSSYLAWYQQKPGQAPRLLINVGSRRATGIPDRFSGSGSGTDFTLTISRLEPEDFAVYYCQQGIMLPPTFGQGTKVEIK |
|  |  |  | 33 | binds | P1AA9641 CD40 × FAP (28H1) (2 + 1) (bispecific antibody, human IgG1, kappa, L234A L235A, 28H1 VH and VL fused to the C-termini of the knob and hole heavy chains; also called CD40 × FAP 2 + 1; huCD40-28H1) heavy 1: EVQLVESGGGLVQPGGSLRLSCAASGYSFTGYYIHWVRQAPGKGLEWVARVIPNAGGTSYNQKFKGRFTLSVDNSKNTAYLQMNSLRAEDTAVYYCAREGIYWWGQGTLVTVSSASTKGPSVFPLAPSSKSTSGGTAALGCLVKDYFPEPVTVSWNSGALTSGVHTFPAVLQSSGLYSLSSVVTVPSSSLGTQTYICNVNHKPSNTKVDKKVEPKSCDKTHTCPPCPAPEAAGGPSVFLFPPKPKDTLMISRTPEVTCVVVDVSHEDPEVKFNWYVDGVEVHNAKTKPREEQYNSTYRVVSVLTVLHQDWLNGKEYKCKVSNKALGAPIEKTISKAKGQPREPQVCTLPPSRDELTKNQVSLSCAVKGFYPSDIAVEWESNGQPENNYKTTPPVLDSDGSFFLVSKLTVDKSRWQQGNVFSCSVMHEALHNHYTQKSLSLSPGGGGGSGGGGSGGGGSGGGGSEIVLTQSPGTLSLSPGERATLSCRASQSVSRSYLAWYQQKPGQAPRLLIIGASTRATGIPDRFSGSGSGTDFTLTISRLEPEDFAVYYCQQGQVIPPTFGQGTKVEIK heavy 2: not shown light: DIQMTQSPSSLSASVGDRVTITCRSSQSLVHSNGNTFLHWYQQKPGKAPKLLIYTVSNRFSGVPSRFSGSGSGTDFTLTISSLQPEDFATYFCSQTTHVPWTFGQGTKVEIKRTVAAPSVFIFPPSDEQLKSGTASVVCLLNNFYPREAKVQWKVDNALQSGNSQESVTEQDSKDSTYSLSSTLTLSKADYEKHKVYACEVTHQGLSSPVTKSFNRGEC |
|  |  |  | 47.1 | binds | P1AD4453 CD40 × FAP (28H1) (4 + 1) (bispecific antibody, human IgG1, kappa, L234A L235A, 28H1 VH and VL fused to the C-termini of the knob and hole heavy chains; also called CD40 × FAP 4 + 1; huCD40-28H1) heavy 1: not shown heavy 2: EVQLVESGGGLVQPGGSLRLSCAASGYSFTGYYIHWVRQAPGKGLEWVARVIPNAGGTSYNQKFKGRFTLSVDNSKNTAYLQMNSLRAEDTAVYYCAREGIYWWGQGTLVTVSSASTKGPSVFPLAPSSKSTSGGTAALGCLVKDYFPEPVTVSWNSGALTSGVHTFPAVLQSSGLYSLSSVVTVPSSSLGTQTYICNVNHKPSNTKVDKKVEPKSCDGGGGSGGGGSEVQLVESGGGLVQPGGSLRLSCAASGYSFTGYYIHWVRQAPGKGLEWVARVIPNAGGTSYNQKFKGRFTLSVDNSKNTAYLQMNSLRAEDTAVYYCAREGIYWWGQGTLVTVSSASTKGPSVFPLAPSSKSTSGGTAALGCLVKDYFPEPVTVSWNSGALTSGVHTFPAVLQSSGLYSLSSVVTVPSSSLGTQTYICNVNHKPSNTKVDKKVEPKSCDKTHTCPPCPAPEAAGGPSVFLFPPKPKDTLMISRTPEVTCVVVDVSHEDPEVKFNWYVDGVEVHNAKTKPREEQYNSTYRVVSVLTVLHQDWLNGKEYKCKVSNKALGAPIEKTISKAKGQPREPQVCTLPPSRDELTKNQVSLSCAVKGFYPSDIAVEWESNGQPENNYKTTPPVLDSDGSFFLVSKLTVDKSRWQQGNVFSCSVMHEALHNHYTQKSLSLSPGGGGGSGGGGSGGGGSGGGGSEIVLTQSPGTLSLSPGERATLSCRASQSVSRSYLAWYQQKPGQAPRLLIIGASTRATGIPDRFSGSGSGTDFTLTISRLEPEDFAVYYCQQGQVIPPTFGQGTKVEIK light: DIQMTQSPSSLSASVGDRVTITCRSSQSLVHSNGNTFLHWYQQKPGKAPKLLIYTVSNRFSGVPSRFSGSGSGTDFTLTISSLQPEDFATYFCSQTTHVPWTFGQGTKVEIKRTVAAPSVFIFPPSDEQLKSGTASVVCLLNNFYPREAKVQWKVDNALQSGNSQESVTEQDSKDSTYSLSSTLTLSKADYEKHKVYACEVTHQGLSSPVTKSFNRGEC |
